Where a chain is given by its changes, count along the chain named.
T1: human Trop-2-ECD-6His fusion protein (human, UniProt P09758 27-274)
T1 construct: Expressed in a human 293 cell line; also called huTrop-2; human Trop-2 antigen
T1 sequence: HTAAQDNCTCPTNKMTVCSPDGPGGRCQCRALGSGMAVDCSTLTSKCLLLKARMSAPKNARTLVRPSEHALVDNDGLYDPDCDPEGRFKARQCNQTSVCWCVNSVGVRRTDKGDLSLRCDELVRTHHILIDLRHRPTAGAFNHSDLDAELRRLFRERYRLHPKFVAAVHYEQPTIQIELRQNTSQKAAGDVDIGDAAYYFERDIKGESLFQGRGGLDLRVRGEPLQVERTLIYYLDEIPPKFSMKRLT

T2: mouse Trop-2-His (mouse, UniProt Q8BGV3 25-270)
T2 sequence (looked up): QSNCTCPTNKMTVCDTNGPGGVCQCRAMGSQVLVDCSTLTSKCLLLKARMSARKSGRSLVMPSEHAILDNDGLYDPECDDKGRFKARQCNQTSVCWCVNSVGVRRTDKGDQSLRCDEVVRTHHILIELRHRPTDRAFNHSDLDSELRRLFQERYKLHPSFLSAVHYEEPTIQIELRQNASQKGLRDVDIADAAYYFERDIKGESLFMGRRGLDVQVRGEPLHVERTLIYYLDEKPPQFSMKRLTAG

T3: human EPCAM-His (human, UniProt P16422 24-265)
T3 construct: also called hEPCAM
T3 sequence (looked up): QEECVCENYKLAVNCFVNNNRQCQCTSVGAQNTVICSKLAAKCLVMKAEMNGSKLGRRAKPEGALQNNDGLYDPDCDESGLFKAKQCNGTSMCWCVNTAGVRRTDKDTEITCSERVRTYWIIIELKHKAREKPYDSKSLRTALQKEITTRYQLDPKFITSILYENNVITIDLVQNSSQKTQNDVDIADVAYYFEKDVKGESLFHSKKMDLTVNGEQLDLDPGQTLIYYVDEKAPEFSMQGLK

T4: human Trop-2 on Trop-2 positive cancer cells (human, UniProt P09758 27-323)
T4 sequence (looked up): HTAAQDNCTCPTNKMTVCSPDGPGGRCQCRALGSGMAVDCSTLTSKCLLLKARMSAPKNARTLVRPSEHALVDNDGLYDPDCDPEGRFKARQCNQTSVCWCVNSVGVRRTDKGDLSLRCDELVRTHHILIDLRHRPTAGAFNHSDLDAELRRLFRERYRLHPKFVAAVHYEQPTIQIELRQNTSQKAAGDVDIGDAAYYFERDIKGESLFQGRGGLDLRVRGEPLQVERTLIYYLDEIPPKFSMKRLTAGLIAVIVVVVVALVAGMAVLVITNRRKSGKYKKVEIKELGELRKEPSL

B1: humanized IgG #118-2-5 HuA/LuX (antibody, V domains shown)
VH: QVQLQESGPGLVKPSETLSLTCTVSGFSLTSYGVNWIRQPPGKGLEWIGVMWAGGSTNYNSALMSRVTISVDTSKNQFSLKLSSVTAADTAVYYCARDENWDGAWFAYWGQGTLVTVSS
VL: DIVMTQSPDSLAVSLGERATINCKSSQSLLNSGTRKNYLAWYQQKPGQPPKLLIYWASSRESGVPDRFSGSGSGTDFTLTISSLQAEDVAVYYCKQSYNLFTFGGGTKVEIK
notes: Full-length IgG expressed in HEK293-6E cells; also called 1 (HuA/LuX); IgG HuA/LuX
B2: humanized IgG #118-2-5 HuD/LuY (antibody, V domains shown)
VH: B1 VH with Q5K, K13A, L20I, I48L, V67L, V71K, F78V, T86Q, V92M
VL: B1 VL with D9S, I21M, N22S, Y55S, L84V, V89L
notes: Full-length IgG expressed in HEK293-6E cells; also called 8 (HuD/LuY)
B3: humanized IgG #118-2-5 Hu(A3)/LuX (antibody, V domains shown)
VH: B1 VH with F78V
VL: B1 VL
notes: Second round of humanization
B4: humanized IgG #118-2-5 Hu(A2)/LuX (antibody, V domains shown)
VH: B1 VH with V71K
VL: B1 VL
notes: Second round of humanization
B5: humanized IgG #118-2-5 HuA/Lu(X6) (antibody, V domains shown)
VH: B1 VH
VL: B1 VL with V89L
notes: Second round of humanization
B6: humanized IgG #118-2-5 Hu(A5)/LuX (antibody, V domains shown)
VH: B1 VH with V92M
VL: B1 VL
notes: Second round of humanization
B7: humanized IgG #118-2-5 HuA/Lu(X5) (antibody, V domains shown)
VH: B1 VH
VL: B1 VL with L84V
notes: Second round of humanization
B8: humanized IgG #118-2-5 HuA/Lu(X1) (antibody, V domains shown)
VH: B1 VH
VL: B1 VL with D9S
notes: Second round of humanization
B9: humanized IgG #118-2-5 HuA/Lu(X4) (antibody, V domains shown)
VH: B1 VH
VL: B1 VL with Y55S
notes: Second round of humanization
B10: humanized IgG #118-2-5 HuA/Lu(X2) (antibody, V domains shown)
VH: B1 VH
VL: B1 VL with I21M
notes: Second round of humanization
B11: humanized IgG #118-2-5 Hu(A4)/LuX (antibody, V domains shown)
VH: B1 VH with T86Q
VL: B1 VL
notes: Second round of humanization
B12: #118-2-5 mouse H4-2/L3-3 (antibody, V domains shown)
VH: QVQLKQSGPGLVAPSQSLSITCTVSGFSLTSYGVNWIRQPPGKGLEWLGVMWAGGSTNYNSALMSRLSISKDNSKSQVFLKMNSLQTDDTGMYYCARDENWDGAWFAYWGQGTLVTVS
VL: DIQMTQSPSSLAVSAGEKVTMSCKSSQSLLNSGTRKNYLAWYQQKPGQSPKLLISWASSRESGVPDRFTGSGSGTDFTLTISSVQAEDLAVYYCKQSYNLFTFGGGTKLELK
notes: The label H4-2/L3-3 is not explained
B13: humanized IgG #118-2-5 HuC/LuX (antibody, V domains shown)
VH: QVQLQESGPGLVKPSETLSLTCTVSGFSLTSYGVNWIRQPPGKGLEWIGVMWAGGSTNYNSALMSRLSISKDNSKSQVFLKMNSLQTDDTGMYYCARDENWDGAWFAYWGQGTLVTVSS
VL: B1 VL
notes: Full-length IgG expressed in HEK293-6E cells; also called 3 (HuC/LuX)
B14: humanized IgG #118-2-5 HuD/LuX (antibody, V domains shown)
VH: B1 VH with Q5K, K13A, L20I, I48L, V67L, V71K, F78V, T86Q, V92M
VL: B1 VL
notes: Full-length IgG expressed in HEK293-6E cells; also called 4 (HuD/LuX)
B15: humanized IgG #118-2-5 HuB/LuX (antibody, V domains shown)
VH: B1 VH with Q5K, E6Q, K13A, E16Q, T17S, L20I
VL: B1 VL
notes: Full-length IgG expressed in HEK293-6E cells; also called 2 (HuB/LuX)
B16: humanized IgG #118-2-5 HuC/LuY (antibody, V domains shown)
VH: B13 VH
VL: B1 VL with D9S, I21M, N22S, Y55S, L84V, V89L
notes: Full-length IgG expressed in HEK293-6E cells; also called 7 (HuC/LuY)
B17: humanized IgG #118-2-5 HuA/LuY (antibody, V domains shown)
VH: B1 VH
VL: B1 VL with D9S, I21M, N22S, Y55S, L84V, V89L
notes: Full-length IgG expressed in HEK293-6E cells
B18: humanized IgG #118-2-5 HuB/LuY (antibody, V domains shown)
VH: B1 VH with Q5K, E6Q, K13A, E16Q, T17S, L20I
VL: B1 VL with D9S, I21M, N22S, Y55S, L84V, V89L
notes: Full-length IgG expressed in HEK293-6E cells; also called 6 (HuB/LuY)
B19: humanized #125-1-5 Hu1/Lu6 (antibody, V domains shown)
VH: QVQLVQSGAEVKKPGASVKVSCKASGYTFTTYVIHWVRQAPGQRLEWMGYINPNNDGTKYNEKFKGRVTITRDTSASTAYMELSSLRSEDTAVYYCARPHFETHAMDYWGQGTLVTVSS
VL: DIQMTQSPSSLSASVGDRVTITCKASEDIFNRLAWYQQKPGKAPKLLISGATSLETGVPSRFSGSGSGKDYTLTISSLQPEDFATYYCQQYWNTWTFGQGTKVEIK
notes: Humanized antibody
B20: humanized #125-1-5 Hu2/Lu5 (antibody, V domains shown)
VH: B19 VH with R38K, A40K, R44G, M48I
VL: B19 VL with I48L, S49Y, K69T
notes: Humanized antibody
B21: #125-1-5 mouse H14-4/L3-4 (antibody, V domains shown)
VH: QIQLVQSGPELVKPGASVKMSCKASGYTFTTYVIHWVKQKPGQGLEWIGYINPNNDGTKYNEKFKGKATLISDKSSTTAYMEVRGLTSEDSAVYYCARPHFETHAMDYWGQGTSVTVSS
VL: DIQMTQSPSSFSVSLGDSVTITCKASEDIFNRLAWYQQKPGNAPRLLISGATSLETGVPSRFSGGGSGKEYTLSITSLQNEDVATYYCQQYWNTWTFGGGTKLEIK

The binders below were run against T1, human Trop-2-ECD-6His fusion protein (assay: antigen binding ELISA on immobilized human Trop-2-ECD-6His).

| EC50 | Binder |
| --- | --- |
| 0.39 nM | B1 |
| 0.06 nM | B2 |
| 0.31 nM | B3 |
| 0.37 nM | B4 |
| 0.26 nM | B5 |
| 0.34 nM | B6 |
| 0.31 nM | B7 |
| 0.26 nM | B8 |
| 0.12 nM | B9 |
| 0.36 nM | B10 |
| 0.39 nM | B11 |

The binders below were run against T2, mouse Trop-2-His (assay: ELISA on coated antigen, one antibody dilution (concentration not given), detected by GAH-HRP; y axis without a label (OD450 by the text)).

| binding result | Binder |
| --- | --- |
| no binding | B12 |
| no binding | B1 |
| no binding | B2 |
| no binding | B13 |
| no binding | B14 |
| no binding | B15 |
| no binding | B16 |
| no binding | B17 |
| no binding | B18 |

These binders were tested against T3, human EPCAM-His in the same assay as above.

| binding result | Binder |
| --- | --- |
| no binding | B12 |
| no binding | B1 |
| no binding | B2 |
| no binding | B13 |
| no binding | B14 |
| no binding | B15 |
| no binding | B16 |
| no binding | B17 |
| no binding | B18 |

Each binder was assayed against T4, human Trop-2 on Trop-2 positive cancer … (assay: cell-based or functional assay).

| Internalization rate (flow cytometry, MDA-MB-468 cells) | Binder |
| --- | --- |
| 28.4% | B12 |
| 70.9% | B1 |
| 13.2% | B2 |
| 0.9% | B13 |
| -7.8% | B14 |
| 75% | B15 |
| 3% | B16 |
| -14.7% | B17 |
| -8.5% | B18 |

Molecular target: T1, human Trop-2-ECD-6His fusion protein
Assay: antigen binding ELISA on immobilized human Trop-2-ECD-6His
Remark: another data set of the same source

| EC50 | Binder |
| --- | --- |
| 0.003 nM | B19 |
| 0.007 nM | B20 |

Molecular target: T4, human Trop-2 on Trop-2 positive cancer …
Assay: cell-based or functional assay
Remark: another data set of the same source

| Internalization rate (flow cytometry, MDA-MB-468 cells) | Binder |
| --- | --- |
| 14% | B19 |
| 47.3% | B20 |
| 5.5% | B21 |

Molecular target: T1, human Trop-2-ECD-6His fusion protein
Assay: antigen binding ELISA on immobilized human Trop-2-ECD-6His
Remark: another data set of the same source

| EC50 | Binder |
| --- | --- |
| 0.024 nM | B12 |
| 0.142 nM | B1 |
| 0.005 nM | B2 |
| 0.034 nM | B13 |
| 0.011 nM | B14 |
| 0.164 nM | B15 |
| 0.014 nM | B16 |
| 0.016 nM | B17 |
| 0.004 nM | B18 |

Molecular target: T4, human Trop-2 on Trop-2 positive cancer …
Assay: cell-based or functional assay
Remark: another data set of the same source

| Internalization rate (flow cytometry, MDA-MB-468 cells) | Binder |
| --- | --- |
| 96.8% | B1 |
| 57.3% | B2 |
| 55.8% | B3 |
| 14.6% | B4 |
| 46.4% | B5 |
| 11.5% | B6 |
| 19.7% | B7 |
| 48.9% | B8 |
| 61.5% | B9 |
| 43.2% | B10 |
| 52.8% | B11 |

Source: US20230235080A1, “TROPHOBLAST CELL-SURFACE ANTIGEN-2 (TROP-2) ANTIBODIES” (Bionecure Therapeutics, Inc., priority 2020, published 2023)
